# Biological target: PD-1 (UniProt Q15116)
# Test: PD-1 blocking assay
# PD-1, sequence (Q15116 25-167): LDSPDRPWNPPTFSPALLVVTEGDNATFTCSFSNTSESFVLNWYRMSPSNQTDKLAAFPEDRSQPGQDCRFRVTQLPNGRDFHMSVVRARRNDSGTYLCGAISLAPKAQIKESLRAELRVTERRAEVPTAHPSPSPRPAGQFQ
substance,measurement,value
Keytruda,IC50,0.282 nM

# Reference: US20220389120A1
